Tested on: β-catenin
Assay: TOP Flash/FOP flash luciferase reporter in hpRPE cells
Type: cell-based, human
Settings: hpRPE cells undergoing UOS+/−NPD1
Text: We tested whether or not Wnt5a activates […] using TOP Flash/FOP flash reporter system in hpRPE cells undergoing UOS+/−NPD1 (FIG. 1g).
Except TOP/FOP flash, the Luciferase activity can be standardized using a construct expressing GFP constitutively under CMV virus promoter. To assess luciferase activity, cell lysates can be obtained using Passive Lysis Buffer (Promega, Madison, Wis.) and mixed with a luciferase assay reagent (Promegam Madison, Wis.). Chemiluminescence produced by luciferase and fluorescence from GFP can be detected using Appliscan 2.3. Data can be analyzed using SkanIt 2.3 (Thermo Fisher Scientific, Waltham, Mass.).
Except TOP/FOP flash, the Luciferase activity was standardized using a construct expressing GFP constitutively under CMV virus promoter. To assess luciferase activity, cell lysates were obtained using Passive Lysis Buffer (Promega) and mixed with a luciferase assay reagent (Promega). Chemiluminescence produced by luciferase and fluorescence from GFP was detected using Appliscan 2.3. Data were analyzed using SkanIt 2.3 (Thermo Fisher Scientific).

B1: Wnt3a: recombinant protein, R&D systems 5036-WN; canonical Wnt ligand (protein, UniProt P56704 19-352, looked up)
Protein Wnt-3a: SYPIWWSLAVGPQYSSLGSQPILCASIPGLVPKQLRFCRNYVEIMPSVAEGIKIGIQECQHQFRGRRWNCTTVHDSLAIFGPVLDKATRESAFVHAIASAGVAFAVTRSCAEGTAAICGCSSRHQGSPGKGWKWGGCSEDIEFGGMVSREFADARENRPDARSAMNRHNNEAGRQAIASHMHLKCKCHGLSGSCEVKTCWWSQPDFRAIGDFLKDKYDSASEMVVEKHRESRGWVETLRPRYTYFKVPTERDLVYYEASPNFCEPNPETGSFGTRDRTCNVSSHGIDGCDLLCCGRGHNARAERRREKCRCVFHWCCYVSCQECTRVYDVHTCK
- β-catenin activity (luciferase): rose almost twice
